The target of assay [1] is T1, HER2 immobilised on a Biacore chip (UniProt P04626 23-652, limits assumed).
T1 construct: also called immobilised HER2 target antigen (Biacore SPR); HER2 chip
As to the kind of experiment: Biacore SPR, HER2 amine-coupled to the chip.

Assay [2] deals with T2, HER2-Fc (UniProt P04626 23-652).
T2 construct: Coated at 10 µg/ml on ELISA plates; also called HER2 antigen; immobilised HER2 target antigen (ELISA); not shown: Fc part
As to the kind of experiment: ELISA, plates coated with 10 µg/ml HER2-Fc, anti-T7 peroxidase detection. As to the method:
(§1) All proteins were detected using the C-terminal T7 Tag which was not expected to be chemically modified (no lysines present). 96-well Immunosorb ELISA plates were coated with 10 μg/ml HER2-Fc in PBS, followed by the test samples, anti-T7 peroxidase conjugate. Extensive PBS washes were in between each layer and detection was with BM-Blue substrate.

Assay [3] concerns the target T2, HER2-Fc. As to the kind of experiment: ELISA, plates coated with 10 µg/ml HER2-Fc, anti-T7 peroxidase detection; unmodified scFv (TCT), ELISA. As to the method: (§2) The DAR was determined by AAA as before (Table 11A & B), this time following the release of the di-proline fragment to identify and quantify the P5-based drug. […] All proteins were detected using the C-terminal T7 Tag which was not expected to be chemically modified (no lysines present). 96-well Immunosorb ELISA plates were coated with 10 μg/ml HER2-Fc in PBS, followed by the test samples, anti-T7-peroxidase conjugate. Extensive PBS/tween-20 and PBS washes were in between each layer and detection was with BM-Blue substrate. […] The DARs were verified by AAA (Tables 11A and 11B).

Assay [4] concerns the target T2, HER2-Fc. As to the kind of experiment: ELISA on plates coated with 10 µg/ml HER2-Fc, detection anti-T7 peroxidase conjugate, absorption at 450 nm. As for the experimental part:
as §1

The target of assay [5] is T2, HER2-Fc. The description is as above. As to the method: as §2
This is another data set of the same source.

The target in assay [6] is T2, HER2-Fc. As to the kind of experiment: ELISA, plates coated with 10 µg/ml HER2-Fc, anti-T7 peroxidase detection; scFv TCT-P5C5(1), 8 drugs loaded, ELISA. As for the experimental part:
as §2

Where two headings read alike, the source gives them in different places.

B1: scFv (TCT) (scFv)
scFv: SGSGGSGQVQLVQSGAEVKKPGESLKISCKGSGYSFTSYWIAWVRQMPGKGLEYMGLIYPGDSDTKYSPSFQGQVTISVDKSVSTAYLQWSSLKPSDSAVYFCARHDVGYCSSSNCAAWPEYFQHWGQGTLVTVSSGGGGSGGGGSGGGGSQSVLTQPPSVSAAPGQKVTISCSGSSSNIGNNYVSWYQQLPGTAPKLLIYGHTNRPAGVPDRFSGSKSGTSASLAISGFRSEDEADYYCAAWDDSLSGWVFGGGTKLTVLMASMTGGQQMG
notes: Anti-HER2 C6.5 scFv with residual Ser, GSGGSG linker and C-terminal T7 tag; also called cleaved TCT; unmodified scFv (TCT)
Regarding B1, the Kd in assay [1] was found to be 1.49 nM; in assay [2], 2.5 nM; in assay [3] it was 7 nM; in assay [5], 6.97 nM. In assay [1], this molecule showed a koff of 0.00417 s⁻¹. The same molecule gave a kon in assay [1] of 2.8e+06 M⁻¹ s⁻¹. The concentration giving a half-maximal response (EC50 (read off the curve)) in assay [4] is 2 to 3 nM; in assay [5], approximately 7 nM.

B2: scFv TCT-P5C5(1) (DAR 8) (scFv)
scFv: B1 scFv
modifications: P5C5 (from P5C5-NHS, compound 6) on lysine residues, DAR 8.17 by AAA
notes: also called scFv (TCT)-P5C5, DAR = 8; compound 71
In turn, B2 showed a Kd in assay [6] of 13 nM. In assay [5], the “EC50 (read off the curve)” value is 10 to 20 nM and the dissociation constant Kd stood at 13 nM.

For the origin of these results see patent US20220233706A1 (ANTIKOR BIOPHARMA, published 2022).
